This is an account of results in paper PMC11574045, “A cofactor-induced repressive type of transcription factor condensation can be induced by synthetic peptides to suppress tumorigenesis” (The EMBO Journal, 2024).

This assay concerns HEK293FT cells transfected with TF library. Put plainly: Screening of TF condensates based on fluorescent puncta. The class given is cell-based. The note with it: Figure 1B numerical data; TF library screen, one value per transcriptional factor. The method, then: TF plasmids were automatically added to black-walled 384-well plates at 80 ng per well to reach a final concentration of 1.6 μg/ml. Polyethylenimine (PEI, Sigma) was then added to the plasmid-loaded plates at 240 ng per well (4.8 μg/ml). Subsequently, HEK293FT cells were seeded into the plate at 2000 cells per well. After 60 h, cells were cultured in medium with or without glucose for 12 h, and then fixed with 4% paraformaldehyde (PFA) at room temperature for 30 min. After three washes with PBS, fixed cells were permeabilized with 0.05% Triton X-100 for 15 min. Thereafter, cells were blocked with 5% BSA for 1 h, and then incubated overnight with anti-Flag (Sigma F3165, 1:200) and anti-GAL4 (Abbkine ABP57232, 1:200) primary antibodies at 4 °C. The cells were then gently washed with PBS, followed by being incubated with Alexa Fluor Plus 488 goat anti-mouse IgG secondary antibody (Thermo A32723, 1:400) or Alexa Fluor Plus 488 goat anti-rabbit IgG secondary antibody (Thermo A32731, 1:400) for 1 h. The plates were kept at 4 °C in the dark before being analyzed using an Opera System (Perkin Elmer). Fifty random fields per well were scanned and analyzed using the Columbus Plus Image Data Storage and Analysis System (Perkin Elmer).

B1: DDX20 (protein, UniProt Q9UHI6 1-824, looked up)
Probable ATP-dependent RNA …: MAAAFEASGALAAVATAMPAEHVAVQVPAPEPTPGPVRILRTAQDLSSPRTRTGDVLLAEPADFESLLLSRPVLEGLRAAGFERPSPVQLKAIPLGRCGLDLIVQAKSGTGKTCVFSTIALDSLVLENLSTQILILAPTREIAVQIHSVITAIGIKMEGLECHVFIGGTPLSQDKTRLKKCHIAVGSPGRIKQLIELDYLNPGSIRLFILDEADKLLEEGSFQEQINWIYSSLPASKQMLAVSATYPEFLANALTKYMRDPTFVRLNSSDPSLIGLKQYYKVVNSYPLAHKVFEEKTQHLQELFSRIPFNQALVFSNLHSRAQHLADILSSKGFPAECISGNMNQNQRLDAMAKLKHFHCRVLISTDLTSRGIDAEKVNLVVNLDVPLDWETYMHRIGRAGRFGTLGLTVTYCCRGEEENMMMRIAQKCNINLLPLPDPIPSGLMEECVDWDVEVKAAVHTYGIASVPNQPLKKQIQKIERTLQIQKAHGDHMASSRNNSVSGLSVKSKNNTKQKLPVKSHSECGIIEKATSPKELGCDRQSEEQMKNSVQTPVENSTNSQHQVKEALPVSLPQIPCLSSFKIHQPYTLTFAELVEDYEHYIKEGLEKPVEIIRHYTGPGDQTVNPQNGFVRNKVIEQRVPVLASSSQSGDSESDSDSYSSRTSSQSKGNKSYLEGSSDNQLKDSESTPVDDRISLEQPPNGSDTPNPEKYQESPGIQMKTRLKEGASQRAKQSRRNLPRRSSFRLQTEAQEDDWYDCHREIRLSFSDTYQDYEEYWRAYYRAWQEYYAAASHSYYWNAQRHPSWMAAYHMNTIYLQEMMHSNQ
Regarding B1, the “Z score of condensed fraction” value worked out at 1.184.

B2: DMRTA1 (protein, UniProt Q5VZB9 1-504, looked up)
Doublesex- and mab-3-related …: MERSQCGSRDRGVSGRPHLAPGLVVAAPPPPSPALPVPSGMQVPPAFLRPPSLFLRAAAAAAAAAAATSGSGGCPPAPGLESGVGAVGCGYPRTPKCARCRNHGVVSALKGHKRFCRWRDCACAKCTLIAERQRVMAAQVALRRQQAQEESEARGLQRLLCSGLSWPPGGRASGGGGRAENPQSTGGPAAGAALGLGALRQASGSATPAFEVFQQDYPEEKQEQKESKCESCQNGQEELISKSHQLYLGSSSRSNGVIGKQSIGSSISEYSNKPDSILSPHPGEQSGGEESPRSLSSSDLESGNESEWVKDLTATKASLPTVSSRPRDPLDILTKIFPNYRRSRLEGILRFCKGDVVQAIEQVLNGKEHKPDNRNLANSEELENTAFQRASSFSLAGIGFGTLGNKSAFSPLQTTSASYGGDSSLYGVNPRVGISPLRLAYSSAGRGLSGFMSPYLTPGLVPTLPFRPALDYAFSGMIRDSSYLSSKDSITCGRLYFRPNQDNP
Regarding B2, the “Z score of condensed fraction” value is reported as -0.1434.

B3: DMP-1 (protein, UniProt Q9Y222 1-760, looked up)
Cyclin-D-binding Myb-like …: MSTVEEDSDTVTVETVNSVTLTQDTEGNLILHCPQNEADEIDSEDSIEPPHKRLCLSSEDDQSIDDSTPCISVVALPLSENDQSFEVTMTATTEVADDEVTEGTVTQIQILQNEQLDEISPLGNEEVSAVSQAWFTTKEDKDSLTNKGHKWKQGMWSKEEIDILMNNIERYLKARGIKDATEIIFEMSKDERKDFYRTIAWGLNRPLFAVYRRVLRMYDDRNHVGKYTPEEIEKLKELRIKHGNDWATIGAALGRSASSVKDRCRLMKDTCNTGKWTEEEEKRLAEVVHELTSTEPGDIVTQGVSWAAVAERVGTRSEKQCRSKWLNYLNWKQSGGTEWTKEDEINLILRIAELDVADENDINWDLLAEGWSSVRSPQWLRSKWWTIKRQIANHKDVSFPVLIKGLKQLHENQKNNPTLLENKSGSGVPNSNTNSSVQHVQIRVARLEDNTAISSSPMAALQIPVQITHVSSADSPATVDSETITLNSGTLQTFEILPSFHLQPTGTPGTYLLQTSSSQGLPLTLTASPTVTLTAAAPASPEQIIVHALSPEHLLNTSDNVTVQCHTPRVIIQTVATEDITSSISQAELTVDSDIQSSDFPEPPDALEADTFPDEIHHPKMTVEPSFNDAHVSKFSDQNSTELMNSVMVRTEEEISDTDLKQEESPSDLASAYVTEGLESPTIEEQVDQTIDDETILIVPSPHGFIQASDVIDTESVLPLTTLTDPILQHHQEESNIIGSSLGSPVSEDSKDVEDLVNCH
Take B3: the “Z score of condensed fraction” value stood at 2.192.

B4: DPRX (protein, UniProt A6NFQ7 1-191, looked up)
Divergent paired-related …: MPGSEDLRKGKDQMHSHRKRTMFTKKQLEDLNILFNENPYPNPSLQKEMASKIDIHPTVLQVWFKNHRAKLKKAKCKHIHQKQETPQPPIPEGGVSTSVGLRNADTLPRLPNAAHPIGLVYTGHRVPSFQLILYPNLKVPANDFIGHRIVHFGCCRDPNIYCLYPILESQVCAPSFHSGSPACSSNQSRER
B4: the “Z score of condensed fraction” value was -0.8656.

B5: DP-1 (protein, UniProt Q14186 1-410, looked up)
Transcription factor Dp-1: MAKDAGLIEANGELKVFIDQNLSPGKGVVSLVAVHPSTVNPLGKQLLPKTFGQSNVNIAQQVVIGTPQRPAASNTLVVGSPHTPSTHFASQNQPSDSSPWSAGKRNRKGEKNGKGLRHFSMKVCEKVQRKGTTSYNEVADELVAEFSAADNHILPNESAYDQKNIRRRVYDALNVLMAMNIISKEKKEIKWIGLPTNSAQECQNLEVERQRRLERIKQKQSQLQELILQQIAFKNLVQRNRHAEQQASRPPPPNSVIHLPFIIVNTSKKTVIDCSISNDKFEYLFNFDNTFEIHDDIEVLKRMGMACGLESGSCSAEDLKMARSLVPKALEPYVTEMAQGTVGGVFITTAGSTSNGTRFSASDLTNGADGMLATSSNGSQYSGSRVETPVSYVGEDDEEDDDFNENDEDD
Consider B5, for which the “Z score of condensed fraction” value is reported as 0.7932.

B6: ACTL6B (protein, UniProt Q99MR0 1-426, looked up)
Actin-like protein 6B: MSGGVYGGDEVGALVFDIGSFSVRAGYAGEDCPKADFPTTVGLLAAEEGGGLELEGEKEKKGKIFHIDTNALHVPRDGAEVMSPLKNGMIEDWECFRAILDHTYSKHVKSEPNLHPVLMSEAPWNTRAKREKLTELMFEQYNIPAFFLCKTAVLTAFANGRSTGLVLDSGATHTTAIPVHDGYVLQQGIVKSPLAGDFISMQCRELFQEMAIDIIPPYMIAAKEPVREGAPPNWKKKEKLPQVSKSWHNYMCNEVIQDFQASVLQVSDSPYDEQVAAQMPTVHYEMPNGYNTDYGAERLRIPEGLFDPSNVKGLSGNTMLGVGHVVTTSIGMCDIDIRPGLYGSVIVTGGNTLLQGFTDRLNRELSQKTPPSMRLKLIASNSTMERKFSPWIGGSILASLGTFQQMWISKQEYEEGGKQCVERKCP
Consider B6, for which the “Z score of condensed fraction” value was determined as 0.5544.

B7: DDX17 (protein, UniProt Q92841 1-729, looked up)
Probable ATP-dependent RNA …: MPTGFVAPILCVLLPSPTREAATVASATGDSASERESAAPAAAPTAEAPPPSVVTRPEPQALPSPAIRAPLPDLYPFGTMRGGGFGDRDRDRDRGGFGARGGGGLPPKKFGNPGERLRKKKWDLSELPKFEKNFYVEHPEVARLTPYEVDELRRKKEITVRGGDVCPKPVFAFHHANFPQYVMDVLMDQHFTEPTPIQCQGFPLALSGRDMVGIAQTGSGKTLAYLLPAIVHINHQPYLERGDGPICLVLAPTRELAQQVQQVADDYGKCSRLKSTCIYGGAPKGPQIRDLERGVEICIATPGRLIDFLESGKTNLRRCTYLVLDEADRMLDMGFEPQIRKIVDQIRPDRQTLMWSATWPKEVRQLAEDFLRDYTQINVGNLELSANHNILQIVDVCMESEKDHKLIQLMEEIMAEKENKTIIFVETKRRCDDLTRRMRRDGWPAMCIHGDKSQPERDWVLNEFRSGKAPILIATDVASRGLDVEDVKFVINYDYPNSSEDYVHRIGRTARSTNKGTAYTFFTPGNLKQARELIKVLEEANQAINPKLMQLVDHRGGGGGGGGRSRYRTTSSANNPNLMYQDECDRRLRGVKDGGRRDSASYRDRSETDRAGYANGSGYGSPNSAFGAQAGQYTYGQGTYGAAAYGTSSYTAQEYGAGTYGASSTTSTGRSSQSSSQQFSGIGRSGQQPQPLMSQQFAQPPGATNMIGYMGQTAYQYPPPPPPPPPSRK
For the molecule B7, the “Z score of condensed fraction” value was found to be 0.6597.

B8: DDIT3 (protein, UniProt P35638 1-169, looked up)
DNA damage-inducible …: MAAESLPFSFGTLSSWELEAWYEDLQEVLSSDENGGTYVSPPGNEEEESKIFTTLDPASLAWLTEEEPEPAEVTSTSQSPHSPDSSQSSLAQEEEEEDQGRTRKRKQSGHSPARAGKQRMKEKEQENERKVAQLAEENERLKQEIERLTREVEATRRALIDRMVNLHQA
On to B8, for which the “Z score of condensed fraction” value is -1.245.

B9: DBX2 (protein, UniProt Q6ZNG2 1-339, looked up)
Homeobox protein DBX2: MLPSAVAAHAGAYWDVVASSALLNLPAAPGFGNLGKSFLIENLLRVGGAPTPRLQPPAPHDPATALATAGAQLRPLPASPVPLKLCPAAEQVSPAGAPYGTRWAFQVLSPSADSARLPGRAPGDRDCTFQPSAPAPSKPFLLSTPPFYSACCGGSCRRPASSTAFPREESMLPLLTQDSNSKARRGILRRAVFSEDQRKALEKMFQKQKYISKTDRKKLAINLGLKESQVKIWFQNRRMKWRNSKEKEVLSNRCIQEVGLQEDPLSRSALGFPSPCPSIWDVPQQHSSPRWRENSPEPSERLIQESSGAPPPEANSLQGALYLCSEEEAGSKGVLTGAV
B9: the “Z score of condensed fraction” value worked out at 2.182.

B10: DLX2 (protein, UniProt Q07687 1-328, looked up)
Homeobox protein DLX-2: MTGVFDSLVADMHSTQIAASSTYHQHQQPPSGGGAGPGGNSSSSSSLHKPQESPTLPVSTATDSSYYTNQQHPAGGGGGGGSPYAHMGSYQYQASGLNNVPYSAKSSYDLGYTAAYTSYAPYGTSSSPANNEPEKEDLEPEIRIVNGKPKKVRKPRTIYSSFQLAALQRRFQKTQYLALPERAELAASLGLTQTQVKIWFQNRRSKFKKMWKSGEIPSEQHPGASASPPCASPPVSAPASWDFGVPQRMAGGGGPGSGGSGAGSSGSSPSSAASAFLGNYPWYHQTSGSASHLQATAPLLHPTQTPQPHHHHHHHGGGGAPVSAGTIF
With B10, the “Z score of condensed fraction” value worked out at 0.04096.

B11: DLX4 (protein, UniProt Q92988 1-240, looked up)
Homeobox protein DLX-4: MTSLPCPLPGRDASKAVFPDLAPVPSVAAAYPLGLSPTTAASPNLSYSRPYGHLLSYPYTEPANPGDSYLSCQQPAALSQPLCGPAEHPQELEADSEKPRLSPEPSERRPQAPAKKLRKPRTIYSSLQLQHLNQRFQHTQYLALPERAQLAAQLGLTQTQVKIWFQNKRSKYKKLLKQNSGGQEGDFPGRTFSVSPCSPPLPSLWDLPKAGTLPTSGYGNSFGAWYQHHSSDVLASPQMM
Consider B11, for which the “Z score of condensed fraction” value is -0.356.
